Usually Km stands for the substrate concentration at which the rate is half of its maximum.

The results in this text go back to article PMC3848040.

Substrate in this series: Nc1ncnc2c1ncn2[C@@H]1O[C@H](COP(=O)(O)OP(=O)(O)OP(=O)(O)O)[C@@H](O)[C@H]1O
The series is described as follows: purified protein. The following applies: phosphate donor; activity depends on divalent ions.

B1: SGK196dTM (Homo sapiens) (protein)
chain: APRQSTVDPTHCPYGHFRIGQMKNCSPWLSCEELRTEVRQLKRVGEGAVKRVFLSEWKEHKVALSQLTSLEMKDDFLHGLQMLKSLQGTHVVTLLGYCEDDNTMLTEYHPLGSLSNLEETLNLSKYQNVNTWQHRLELAMDYVSIINYLHHSPVGTRVMCDSNDLPKTLSQYLLTSNFSILANDLDALPLVNHSSGMLVKCGHRELHGDFVAPEQLWPYGEDVPFHDDLMPSYDEKIDIWKIPDISSFLLGHIEGSDMVRFHLFDIHKACKSQTPSERPTAQDVLETYQKVLDTLRDAMMSQAREML
B1: the Km is given as 4.1 ± 1.4 µM.
